Read-outs that look alike come from different tables or passages of the source.

Assay [1] deals with T1, human TIGIT recombinant protein (human, UniProt Q495A1 22-141, limits assumed).
T1 construct: construct not described; also called human TIGT recombinant protein
T1 sequence (looked up): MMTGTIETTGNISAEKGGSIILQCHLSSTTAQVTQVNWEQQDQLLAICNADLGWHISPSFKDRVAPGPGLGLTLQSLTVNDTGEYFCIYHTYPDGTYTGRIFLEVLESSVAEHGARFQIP
Nature of the assay: ELISA, coated antigen. The protocol:
(§1) A human, cynomolgus monkey, or mouse PVRIG protein (at a concentration of 1 μg/mL) was coated on a 96-well microplate at 100 μL per well, and incubated overnight at 4° C. The plate was washed three times with wash buffer at 250 μL per well. For each wash, the plate was shaken for 10 s to ensure adequate cleaning. A blocking solution (PBS+0.05% Tween20+1% BSA) was added at 300 μL/well, and the plate was incubated at room temperature for 1 h. The plate was washed three times with wash buffer at 250 μL per well. For each wash, the plate was shaken for 10 s to ensure adequate cleaning. Dilutions of the test anti-PVRIG antibodies were added at 100 μL/well. The plate was incubated at 37° C. for 1 h. The plate was washed three times with wash buffer at 250 μL per well. The […] anti-human IgG secondary antibody (Sigma, A8667) was added at 100 μL per well. The plate was incubated at 37° C. for 1 h. The plate was washed three times with wash buffer at 250 μL per well. TMB was added at 100 μL/well, and the plate was incubated in the dark for 15 min. 0.16 M sulfuric acid was added at 50 μL/well. The OD values at 450 nm were read by using a Thermo MultiSkanFc microplate reader, and the EC₅₀ values of the binding of the anti-PVRIG antibodies to PVRIG were calculated.
(§2) The experiments were carried out according to the methods of Example 4, Example 5 and Example 6 (corresponding receptors and ligands were replaced with human TIGIT and human PVR), and the results are shown in Table 27.

In assay [2] the target is T2, human TIGIT expressed on cells (human, UniProt Q495A1 22-244).
T2 construct: whole, on cells; also called cells overexpressing human TIGIT
T2 sequence (looked up): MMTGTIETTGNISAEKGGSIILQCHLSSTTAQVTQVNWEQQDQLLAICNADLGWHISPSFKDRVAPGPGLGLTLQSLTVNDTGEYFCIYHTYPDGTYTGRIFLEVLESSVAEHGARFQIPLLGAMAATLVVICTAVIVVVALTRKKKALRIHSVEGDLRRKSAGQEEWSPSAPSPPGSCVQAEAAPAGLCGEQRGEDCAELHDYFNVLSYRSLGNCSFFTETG
Nature of the assay: FACS, cells overexpressing target. The procedure: (§3) The expression plasmid carrying human or cynomolgus monkey PVRIG gene sequence was transfected into HEK293 cells, and the over-expressing stable transfection monoclonal cell strain was obtained by antibiotic screening and infinite dilution. Overexpressing cells were seeded into a 96-well plate at 2×10⁵ cells/per well. The cells were centrifuged at 300 g for 5 min, the supernatant was then removed, 100 μL of the test antibody was added, and the mixture was incubated at 4° C. for 1 h. The mixture was centrifuged, the supernatant was removed, the plate was washed 3 times with 200 μL of wash buffer (PBS+2% FBS), and then 100 μL of an anti-human IgG secondary antibody (Invitrogen, A-11013) labeled with Alexa Fluor 488 diluted at 1:500 was added. The mixture was incubated at 4° C. for 1 h. The plate was centrifuged, and the supernatant was removed. The plate was washed 3 times with 200 μL of wash buffer (PBS+2% FBS). The cells were resuspended in 100 μL of PBS and tested on a flow cytometer (BD FACS Calibur or BD FACS Canto_II).
as §2
(In general: A flow cytometer gives signals particle by particle.)

The target of assay [3] is T1, human TIGIT recombinant protein. Nature of the assay: competition ELISA; human TIGIT, competitor human PVR. The protocol: (§4) The h-PVRIG-mIgG2a Fc protein (at a concentration of 1 μg/mL) was coated on the 96-well microplate at 100 μL per well, and incubated overnight at 4° C. The plate was washed three times with wash buffer at 250 μL per well. For each wash, the plate was shaken for 10 s to ensure adequate cleaning. A blocking solution was added at 300 μL/well, and the plate was incubated at room temperature for 1 h. The plate was washed three times with wash buffer at 250 μL per well. For each wash, the plate was shaken for 10 s to ensure adequate cleaning. 50 μL of diluted test anti-PVRIG antibody and 50 μL of his-tagged ligand PVRL2 were added to each well, and the plate was incubated at 37° C. for 1 h. The plate was washed three times with wash buffer at 250 μL per well. The HRP-labeled anti-his-tagged secondary antibody (Genscrpit) diluted at 1:2000 was added at 100 μL per well. The plate was incubated at 37° C. for 1 h. The plate was washed three times with wash buffer at 250 μL per well. TMB was added at 100 μL/well, and the plate was incubated in the dark for 15 min. 0.16 M sulfuric acid was added at 50 μL/well. OD values at 450 nm were measured using a Thermo MμtLtiSkanFc microplate reader, and the IC₅₀ values of the anti-PVRIG antibodies blocking the binding of PVRIG to PVRL2 were calculated.
as §2

The target is the same in assay [4]. Nature of the assay: ELISA, coated antigen. The protocol: as §1
(§5) Similarly to Examples 4, 5 and 6, the binding of humanized anti-PVRIG/TIGIT bispecific antibodies to human and cynomolgus monkey TIGIT and blocking of binding of human TIGIT to ligand were detected, where PVRIG protein was replaced with TIGIT and PVRL2 was replaced with PVR.
The source holds these as a separate data set.

Assay [5] concerns the target cynomolgus monkey TIGIT recombinant protein (cynomolgus monkey, UniProt A0A7N9I9V4 89-209). Nature of the assay: ELISA, coated antigen. The protocol:
as §1, §5
(In general: An ELISA detects its analyte on a solid surface through an enzyme-linked reagent.)

Assay [6] addresses T2, human TIGIT expressed on cells. Nature of the assay: FACS, cells overexpressing target. The protocol: as §3, §5
This is another data set of the same source.

Assay [7] has as its target T3, cynomolgus monkey TIGIT expressed on cells (cynomolgus monkey, UniProt A0A7N9I9V4 89-312).
T3 construct: whole, on cells; also called cells overexpressing cynomolgus monkey TIGIT
Nature of the assay: FACS, cells overexpressing target. The protocol:
as §3, §5

The target of assay [8] is T1, human TIGIT recombinant protein. Nature of the assay: competition ELISA; human TIGIT, competitor human PVR. The protocol:
as §4, §5
The source holds these as a separate data set.

Assay [9] deals with T4, human TIGIT antigen (AcroBiosystem, TIT-H52H3) (human, UniProt Q495A1 22-141).
T4 sequence (looked up): T1 sequence (looked up)
Nature of the assay: SPR (Biacore X100), antibody captured on Protein A chip, 1:1 fit. The text has this: The affinity of the humanized bispecific antibodies for human PVRIG, cynomolgus monkey PVRIG and human TIGIT was detected using Biacore. Humanized bispecific antibodies were each captured on a Protein A biosensor chip (GE lifesciences, 29127557) of a Biacore instrument (Biacore X100, GE), and then human PVRIG antigen (AcroBiosystem, PVG-H52H4), cynomolgus monkey PVRIG antigen (SEQ ID NO: 1), or human TIGIT antigen (AcroBiosystem, TIT-H52H3) at a series of concentration gradients each flowed over the chip surface. The reaction signals were detected in real time using a Biacore instrument (Biacore X100, GE) to obtain association and dissociation curves. The data obtained from the experiment were fitted using the (1:1) Binding model with the BiacoreX100 evaluation software 2.0 GE to obtain affinity values (see Table 31).
In general terms: SPR reads the build-up and loss of mass on a sensor chip optically.

In assay [10] the target is T5, human IgG1 Fc-tagged mouse PVRIG (m-PVRIG-hIgG1 Fc) (mouse, UniProt A0A1B0GS01 35-165).
T5 construct: bought from Acrobiosystems; also called Mouse PVRIG-Fc; mouse PVRIG recombinant protein; not shown: human IgG1 Fc tag of the Acrobiosystems product, and any linker to it
T5 sequence: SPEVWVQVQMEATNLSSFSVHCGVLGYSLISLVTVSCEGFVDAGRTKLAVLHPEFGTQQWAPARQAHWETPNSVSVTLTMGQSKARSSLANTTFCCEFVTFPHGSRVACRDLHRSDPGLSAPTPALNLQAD
Nature of the assay: ELISA, coated antigen. The procedure: (§6) ELISA assay was used to detect binding properties of anti-PVRIG antibodies. […] After the antibody was added, the activity of the binding of the antibody to the antigen was detected by adding a secondary antibody (HRP-conjugated anti-primary antibody Fc antibody) and HRP substrate TMIB.
as §1

The target of assay [11] is T6, his-tagged cynomolgus monkey PVRIG (cyno-PVRIG-his) recombinant protein (cynomolgus monkey).
T6 construct: expressed in HEK293, purified by Ni-NTA; also called Monkey PVRIG-his; cynomolgus monkey PVRIG recombinant protein
T6 chain: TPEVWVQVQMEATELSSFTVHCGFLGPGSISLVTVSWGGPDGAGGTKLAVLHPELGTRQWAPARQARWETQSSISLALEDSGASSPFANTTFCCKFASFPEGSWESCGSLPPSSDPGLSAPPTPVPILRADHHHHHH
Nature of the assay: ELISA, coated antigen. The protocol:
as §6, §1

B1: anti-PVRIG/TIGIT bispecific antibody 1708-151-3 (bispecific antibody, human IgG4 S228P, kappa)
heavy: not shown
light: HVQLVESGGGSVQAGGSLRLSCVASASGFTYRPYCMAWFRQAPGKEREAVAGIDIFGGTTYADSVKGRFTASRDNAGFSLFLQMNDLKPEDTAMYYCAAGDSPDGRCPPLGQGLNYWGQGTQVTVSSGGGGSGGGGSDIQMTQSPSSLSASVGDRVTITCRASENIYSYLAWYQQKPGKSPKLLIYNARTLAEGVPSRFSGSGSGTDFTLTISSLQPEDFATYYCQYHSGSPLPFGGGTKVEIKRTVAAPSVFIFPPSDEQLKSGTASVVCLLNNFYPREAKVQWKVDNALQSGNSQESVTEQDSKDSTYSLSSTLTLSKADYEKHKVYACEVTHQGLSSPVTKSFNRGEC
On to B1, for which the EC50 came to 0.069 nM in assay [1] and 1.92 nM in [2]. Moreover, in assay [3], the IC50 turned out to be 0.62 nM.

B2: anti-PVRIG/TIGIT bispecific antibody 1708-151-4 (bispecific antibody, human IgG4 S228P, kappa)
heavy: not shown
light: DIQMTQSPSSLSASVGDRVTITCRASENIYSYLAWYQQKPGKSPKLLIYNARTLAEGVPSRFSGSGSGTDFTLTISSLQPEDFATYYCQYHSGSPLPFGGGTKVEIKRTVAAPSVFIFPPSDEQLKSGTASVVCLLNNFYPREAKVQWKVDNALQSGNSQESVTEQDSKDSTYSLSSTLTLSKADYEKHKVYACEVTHQGLSSPVTKSFNRGECGGGGSGGGGSHVQLVESGGGSVQAGGSLRLSCVASASGFTYRPYCMAWFRQAPGKEREAVAGIDIFGGTTYADSVKGRFTASRDNAGFSLFLQMNDLKPEDTAMYYCAAGDSPDGRCPPLGQGLNYWGQGTQVTVSS
For B2, the EC50 worked out at 0.054 nM in assay [1] and 1 nM in assay [2]. For the same molecule, the IC50 in assay [3] was 0.69 nM.

B3: anti-PVRIG/TIGIT bispecific antibody 1708-151-1 (bispecific antibody, human IgG4 S228P, kappa)
heavy: not shown
light: DIQMTQSPSSLSASVGDRVTITCRASENIYSYLAWYQQKPGKSPKLLIYNARTLAEGVPSRFSGSGSGTDFTLTISSLQPEDFATYYCQYHSGSPLPFGGGTKVEIKRTVAAPSVFIFPPSDEQLKSGTASVVCLLNNFYPREAKVQWKVDNALQSGNSQESVTEQDSKDSTYSLSSTLTLSKADYEKHKVYACEVTHQGLSSPVTKSFNRGEC
B3: the values for the EC50 in [1] and in assay [2] were 0.101 nM and 1.51 nM, respectively. Besides, the IC50 in assay [3] worked out at 0.96 nM.

B4: humanized anti-PVRIG/TIGIT bispecific antibody 1708-39H2 (bispecific antibody, human IgG4 S228P, kappa)
heavy: not shown
light: B3 light
B4: the EC50 in [4] is 0.135 nM; in [5] it was 0.105 nM; in assay [6] it was 0.005 nM; in [7], 0.005 nM. In addition, the IC50 in assay [8] came out at 0.812 nM. This molecule had a Kd in assay [9] of 0.0808 nM. The same molecule came in with an off-rate constant (koff) in [9] of 0.000113 s⁻¹. The kon in assay [9] amounted to 1.39e+06 M⁻¹ s⁻¹.

B5: anti-PVRIG/TIGIT bispecific antibody 1708-151-2 (bispecific antibody, human IgG4 S228P, kappa)
heavy: not shown
light: B3 light
As for B5, the figures for the EC50 in [1] and in [2] were 0.09 nM and 1.27 nM, respectively. In [3], the IC50 worked out at 1.04 nM.

B6: humanized anti-PVRIG/TIGIT bispecific antibody 1708-151H8 (bispecific antibody, human IgG4 S228P, kappa)
heavy: not shown
light: B3 light
Take B6: the 50% effective concentration (EC50) in assay [4] came to 0.184 nM; in assay [5], 0.135 nM; in [6] it was 0.006 nM; in assay [7], 0.011 nM. Besides, the IC50 in assay [8] is 1.09 nM.

B7: anti-PVRIG antibody 20 (antibody, human IgG4 S228P, F234A L235A, V domains shown)
VH: DVQLVESGGGSVQAGGSLRLSCVASRYTSRTDCMGWFRQAPGKEHEGVAHIDSDGIPRYVDSVKGRFTISQDHAKNTLYLQMNSLKPEDSATYYCVVGFKFDDDYCAPNDWGQGTQVTVSS
notes: no light chain
As to B7, in assay [10], the binding result is “no binding”. In addition, the EC50 in assay [11] turned out to be 0.14 nM.

The EC50 is the midpoint of the concentration-response curve. The IC50 is the point on the concentration scale where inhibition reaches its midpoint. Usually Kd stands for the concentration at which binding is half-saturated. The term koff denotes a measure of how fast the partners let go of each other. A word on the kon: it is the rate constant with which the complex forms.

The values above are taken from patent publication US20240376207A1 (JIANGSU HENGRUI PHARMACEUTICALS, published 2024).
